Biological target: DNMT1 (Homo sapiens, UniProt P26358)
Assay: ELISA

Sequence of DNMT1 (P26358 whole entry): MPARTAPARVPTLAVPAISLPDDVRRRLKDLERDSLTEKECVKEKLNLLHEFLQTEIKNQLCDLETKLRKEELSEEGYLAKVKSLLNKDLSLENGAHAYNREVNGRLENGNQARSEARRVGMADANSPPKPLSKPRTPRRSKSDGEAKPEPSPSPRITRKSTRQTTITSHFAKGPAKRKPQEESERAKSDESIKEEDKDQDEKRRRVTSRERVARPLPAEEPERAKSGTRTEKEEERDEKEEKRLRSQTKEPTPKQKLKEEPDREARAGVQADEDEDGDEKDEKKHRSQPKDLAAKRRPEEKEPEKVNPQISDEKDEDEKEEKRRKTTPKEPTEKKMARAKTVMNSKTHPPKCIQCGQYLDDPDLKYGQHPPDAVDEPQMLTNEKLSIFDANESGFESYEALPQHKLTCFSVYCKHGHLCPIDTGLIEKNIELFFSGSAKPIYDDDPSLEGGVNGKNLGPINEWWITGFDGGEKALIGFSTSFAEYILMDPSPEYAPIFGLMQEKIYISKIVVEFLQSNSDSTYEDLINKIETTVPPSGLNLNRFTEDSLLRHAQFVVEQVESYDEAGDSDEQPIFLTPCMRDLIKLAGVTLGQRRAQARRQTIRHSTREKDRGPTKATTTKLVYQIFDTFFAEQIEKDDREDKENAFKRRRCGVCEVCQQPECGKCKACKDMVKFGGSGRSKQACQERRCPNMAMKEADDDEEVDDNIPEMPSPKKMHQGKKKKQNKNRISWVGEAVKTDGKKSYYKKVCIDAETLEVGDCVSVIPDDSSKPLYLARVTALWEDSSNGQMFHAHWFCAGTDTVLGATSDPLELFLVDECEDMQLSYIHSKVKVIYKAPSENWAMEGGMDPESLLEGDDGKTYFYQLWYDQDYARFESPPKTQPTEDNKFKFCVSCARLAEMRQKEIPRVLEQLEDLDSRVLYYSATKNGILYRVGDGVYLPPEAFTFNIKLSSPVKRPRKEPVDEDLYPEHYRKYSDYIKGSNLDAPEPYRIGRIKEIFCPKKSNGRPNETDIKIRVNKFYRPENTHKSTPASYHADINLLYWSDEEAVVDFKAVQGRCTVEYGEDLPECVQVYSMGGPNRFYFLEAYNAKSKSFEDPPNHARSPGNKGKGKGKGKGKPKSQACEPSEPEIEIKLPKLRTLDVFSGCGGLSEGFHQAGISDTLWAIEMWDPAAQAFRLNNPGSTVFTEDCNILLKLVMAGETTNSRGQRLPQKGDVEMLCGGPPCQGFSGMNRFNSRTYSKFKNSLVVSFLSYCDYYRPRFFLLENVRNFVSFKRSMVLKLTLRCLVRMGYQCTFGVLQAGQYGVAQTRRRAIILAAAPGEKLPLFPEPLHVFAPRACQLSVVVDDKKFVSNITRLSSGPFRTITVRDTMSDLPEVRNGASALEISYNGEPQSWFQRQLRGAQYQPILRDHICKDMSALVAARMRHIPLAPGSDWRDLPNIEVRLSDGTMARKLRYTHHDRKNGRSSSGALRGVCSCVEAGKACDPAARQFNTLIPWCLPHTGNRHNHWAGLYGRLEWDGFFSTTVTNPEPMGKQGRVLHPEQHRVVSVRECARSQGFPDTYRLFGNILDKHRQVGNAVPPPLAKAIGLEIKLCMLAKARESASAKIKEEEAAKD

B1: CD133 (protein)
chain: GGQPSSTDAPKAWNYELPATNYETQDSHKAGPIGILFELVHIFLYVVQPRDFPEDTLRKFLQKAYESKIDYDKPETVILGLKIVYYEAGIILCCVLGLLFIILMPLVGYFFCMCRCCNKCGGEMHQRQKENGPFLRKCFAISLLVICIIISIGIFYGFVANHQVRTRIKRSRKLADSNFKDLRTLLNETPEQIKYILAQYNTTKDKAFTDLNSINSVLGGGILDRLRPNIIPVLDEIKSMATAIKETKEALENMNSTLKSLHQQSTQLSSSLTSVKTSLRSSLNDPLCLVHPSSETCNSIRLSLSQLNSNPELRQLPPVDAELDNVNNVLRTDLDGLVQQGYQSLNDIPDRVQRQTTTVVAGIKRVLNSIGSDIDNVTQRLPIQDILSAFSVYVNNTESYIHRNLPTLEEYDSYWWLGGLVICSLLTLIVIFYYLGLLCGVCGYDRHATPTTRGCVSNTGGVFLMVGVGLSFLFCWILMIIVVLTFVFGANVEKLICEPYTSKELFRVLDTPYLLNEDWEYYLSGKLFNKSKMKLTFEQVYSDCKKNRGTYGTLHLQNSFNISEHLNINEHTGSISSELESLKVNLNIFLLGAAGRKNLQDFAACGIDRMNYDSYLAQTGKSPAGVNLLSFAYDLEAKANSLPPGNLRNSLKRDAQTIKTIHQQRVLPIEQSLSTLYQSVKILQRTGNGLLERVTRILASLDFAQNFITNNTSSVIIEETKKYGRTIIGYFEHYLQWIEFSISEKVASCKPVATALDTAVDVFLCSYIIDPLNLFWFGIGKATVFLLPALIFAVKLAKYYRRMDSEDVYDDVETIPMKNMENGNNGYHKDHVYGIHNPVMTSPSQH
Kd: ~0.15 µM

Source: article PMC9475542 (2022)
